Paper PMC9226187, “Probing TDP-43 condensation using an in silico designed aptamer”

Target: TDP-43 RRM1-2 (UniProt Q13148 102-269)
Experiment: BLI; BLI: 10 mM potassium phosphate pH 7.2, 150 mM KCl, 0.01% Tween20, 25 °C; biotin-RNA on streptavidin sensors, protein 20 nM-20 µM; PAINT in PBS
Conditions: protein: recombinant, tags: His6-SUMO tag cleaved (TEV)

Chain of TDP-43 RRM1-2 (Q13148 102-269): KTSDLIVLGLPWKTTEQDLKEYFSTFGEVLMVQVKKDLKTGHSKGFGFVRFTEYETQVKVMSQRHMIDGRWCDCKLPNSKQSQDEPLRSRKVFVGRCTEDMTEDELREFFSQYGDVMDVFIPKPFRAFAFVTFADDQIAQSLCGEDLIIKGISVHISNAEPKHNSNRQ

Row | Binder | Kd (label: 3' biotin, linear, single-stranded) | Kd (label: 5' biotin)
1 | CGGUGUUGCU (ssRNA) [Apt-1] | 100 ± 10 nM | 
2 | AGCAACACCG (ssRNA) [nApt-1] |  | 1730 nM
